The results in this text go back to publication PMC5792436, “TT(N)mGCCTC inhibits archaeal family B DNA polymerases”.

Data set [1] deals with T1, KOD DNA polymerase, purified (pET22b-KOD) (UniProt D0VWU9 1-774).
T1 sequence: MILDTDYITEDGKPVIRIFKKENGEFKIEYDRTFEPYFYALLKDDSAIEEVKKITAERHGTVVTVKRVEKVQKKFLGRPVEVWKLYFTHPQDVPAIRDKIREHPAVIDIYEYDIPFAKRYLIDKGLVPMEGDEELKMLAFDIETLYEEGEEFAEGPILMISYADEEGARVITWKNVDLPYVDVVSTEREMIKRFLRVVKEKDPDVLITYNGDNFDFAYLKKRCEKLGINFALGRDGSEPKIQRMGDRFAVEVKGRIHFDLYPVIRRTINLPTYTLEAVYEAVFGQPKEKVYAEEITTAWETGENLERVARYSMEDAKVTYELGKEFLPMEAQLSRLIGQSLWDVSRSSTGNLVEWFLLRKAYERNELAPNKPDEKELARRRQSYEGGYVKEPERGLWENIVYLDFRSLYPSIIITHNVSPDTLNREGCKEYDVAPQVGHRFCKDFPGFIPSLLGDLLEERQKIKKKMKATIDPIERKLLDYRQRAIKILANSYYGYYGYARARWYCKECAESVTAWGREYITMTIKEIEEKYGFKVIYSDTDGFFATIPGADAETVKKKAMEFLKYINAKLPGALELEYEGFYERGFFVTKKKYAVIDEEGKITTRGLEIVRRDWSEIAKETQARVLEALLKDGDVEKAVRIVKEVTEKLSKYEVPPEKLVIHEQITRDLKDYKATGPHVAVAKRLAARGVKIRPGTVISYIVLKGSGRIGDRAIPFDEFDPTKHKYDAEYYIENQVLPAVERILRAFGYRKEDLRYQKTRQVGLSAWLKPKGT
Description: EMSA; 2 nM DNA, no Mg2+; 10 mM Tris-HCl pH 7.9, 50 mM KCl, 1 mM EDTA, 5% glycerol, 1 mM DTT, 25 ug/ml BSA; no MgCl2, no poly(dI-dC); 20 min at room temperature; 6% PAGE in 0.5X TBE. The settings on record: protein: recombinant; tags: His; label: 5' biotin. (A gel shift assay detects complexes by their altered migration in electrophoresis.)

Data set [2] deals with Taq DNA polymerase (Fig. 4A) (UniProt P19821 1-832). Description: EMSA; no Mg2+; 10 mM Tris-HCl pH 7.9, 50 mM KCl, 1 mM EDTA, 5% glycerol, 1 mM DTT, 25 ug/ml BSA; no MgCl2, no poly(dI-dC); 20 min at room temperature; 6% PAGE in 0.5X TBE. As to conditions: protein: commercial; label: 5' biotin.
Chain of Taq DNA polymerase (Fig. 4A) (P19821 whole entry): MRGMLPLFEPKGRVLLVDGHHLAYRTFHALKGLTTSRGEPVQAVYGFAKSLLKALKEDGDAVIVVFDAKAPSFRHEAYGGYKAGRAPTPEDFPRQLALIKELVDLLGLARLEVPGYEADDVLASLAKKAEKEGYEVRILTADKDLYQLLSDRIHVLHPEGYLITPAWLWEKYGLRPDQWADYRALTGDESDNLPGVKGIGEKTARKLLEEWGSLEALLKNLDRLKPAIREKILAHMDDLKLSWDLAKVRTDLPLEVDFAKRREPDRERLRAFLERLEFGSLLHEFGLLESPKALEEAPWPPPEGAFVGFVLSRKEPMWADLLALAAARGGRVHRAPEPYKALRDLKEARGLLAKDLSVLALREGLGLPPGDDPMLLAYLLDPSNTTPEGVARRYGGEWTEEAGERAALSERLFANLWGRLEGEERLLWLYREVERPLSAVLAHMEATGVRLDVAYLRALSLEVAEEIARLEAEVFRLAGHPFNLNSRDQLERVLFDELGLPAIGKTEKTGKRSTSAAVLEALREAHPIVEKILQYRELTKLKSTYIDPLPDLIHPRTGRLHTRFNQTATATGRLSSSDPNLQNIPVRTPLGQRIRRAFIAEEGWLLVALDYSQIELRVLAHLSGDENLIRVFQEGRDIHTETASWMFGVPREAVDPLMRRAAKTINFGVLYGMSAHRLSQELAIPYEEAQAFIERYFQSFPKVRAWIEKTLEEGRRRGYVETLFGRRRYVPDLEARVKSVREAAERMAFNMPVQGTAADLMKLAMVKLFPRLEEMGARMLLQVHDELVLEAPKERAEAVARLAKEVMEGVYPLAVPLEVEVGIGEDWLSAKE

For the molecule TACCGAGCTCTTACGCGTGCCTCTGACTTGCCTCAGAGC (ssDNA) [Bio-Olig2.5], the Kd (as a rule, a measure of binding affinity in units of concentration) in data set [1] was roughly 40 nM. Also, the binding result in data set [2] was “no binding”.
